In publication PMC4993455 (PLoS ONE, 2016):

Key:
[1] = molecular target: the molecule itself; assay: SEC; analytical gel filtration of nuclear fractions (100 μl) of HEK 293T cells overexpressing HA-PDRG1, FLAG-MATα1 or both on Superose 12 10/300 GL; fractions analysed by dot-blot
[2] = molecular target: T1, recombinant methionine adenosyltransferase α1 (MATα1) (rat, UniProt P13444 1-397); assay: SEC; equimolar purified recombinant MATα1 or MATα2 and GST-PDRG1 incubated 1 hour at 4°C, then Biogel A column (1.5 x 90 cm) in 50 mM Tris/HCl pH 8, 10 mM MgSO4, 50 mM KCl at 4°C; both proteins detected in the pooled activity peaks by Coomassie staining and/or western blotting; conditions: both partners purified
T1 construct: rat MATα1, pSSRL-T7N containing the rat Mat1a ORF; also called pSSRL-T7N; MATα1 homo-oligomers; source: E. coli BL21(DE3) Codon Plus; soluble extract (pull-down)
T1 sequence (P13444 whole entry): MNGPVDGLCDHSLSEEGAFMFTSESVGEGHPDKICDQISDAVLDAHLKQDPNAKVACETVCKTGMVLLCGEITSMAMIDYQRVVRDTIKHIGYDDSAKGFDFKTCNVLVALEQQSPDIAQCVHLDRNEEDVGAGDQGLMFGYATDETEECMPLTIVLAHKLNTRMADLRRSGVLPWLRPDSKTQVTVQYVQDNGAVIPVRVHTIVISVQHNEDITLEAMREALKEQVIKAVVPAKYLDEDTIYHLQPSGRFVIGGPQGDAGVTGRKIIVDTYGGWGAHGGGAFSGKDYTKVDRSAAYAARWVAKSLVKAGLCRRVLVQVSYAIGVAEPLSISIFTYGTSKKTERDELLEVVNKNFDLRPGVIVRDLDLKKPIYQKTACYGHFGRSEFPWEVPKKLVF

Chain of FLAG-MATα1 (P13444 whole entry): as above

| binding result [2] | Binder | stoichiometry N [1] |
| --- | --- | --- |
| – | FLAG-MATα1 (enzyme, rat MATα1, pFLAG-MAT containing the rat Mat1a ORF; also called pFLAG-MAT; source: CHO, HEK 293T or COS-7 cells, transiently transfected; in total lysate, nuclear or cytosolic fractions) not shown | 4 |
| – | HA-PDRG1 (natural protein, residues between the HA tag and PDRG1; rat PDRG1, full ORF (402 bp); also called pHA-PDRG1; HA-tagged PDRG1; source: CHO, HEK 293T or COS-7 cells, transiently transfected; in total lysate, nuclear or cytosolic fractions; not shown: HA, N-terminal, kept) not shown | 6 |
| binds | GST-PDRG1 (natural protein, 9 amino acid linker between GST and PDRG1; rat PDRG1, full ORF (402 bp) in pGEX-5X-1; also called pGEX-PDRG1; tagged-PDRG1; source: E. coli BL21(DE3) Codon Plus; soluble extract loaded on Glutathione-Sepharose (pull-down); purified on Glutathione-Sepharose 4B, eluted with 20 mM GSH (gel filtration, activity); not shown: GST, N-terminal, kept) not shown | – |
